Test results reported in article PMC9418295, “Characterization of proteins from the 3N5M family reveals an operationally stable amine transaminase” (Applied Microbiology and Biotechnology, 2022).

Key:
Assay in all cases: native gel or EMSA + SEC; native PAGE without SDS (7.5% separating gel, running buffer 0.05 M Tris, 0.038 M glycine, pH 8.3) against the standards TA-3HMU and TA-3FCR (dimers), catalase and TA-3N5M (tetramers); SEC on HiPrep 16/60 Sephacryl S-100 HR in 50 mM sodium phosphate pH 8.0; subunit size by SDS-PAGE
[1] = target: TA-5, putative transaminase from Halomonas elongata (Halomonas elongata)
[2] = target: TA-10, amine transaminase from Burkholderia multivorans (Burkholderia multivorans)
[3] = target: TA-9, putative transaminase from Burkholderia cepacia (Burkholderia cepacia)
[4] = target: the molecule itself

Molecule: TA-5, putative transaminase from Halomonas elongata (enzyme)
- stoichiometry N [1]: 4

Molecule: TA-10, amine transaminase from Burkholderia multivorans (enzyme)
- stoichiometry N [2]: 4

Molecule: TA-9, putative transaminase from Burkholderia cepacia (enzyme)
- stoichiometry N [3]: 4

B1: TA-1, taurine transaminase from Bilophila wadsworthia (enzyme, UniProt Q9APM5 1-456, looked up)
chain: MTYDKAELVALDKKYVWHHLTQHKNFEPAIYVKGEGMRITDIDGKTYLDAVSGGVWTVNVGYGRKEIVDAVAKQMMEMCYFANGIGNVPTIKFSEKLISKMPGMSRVYLSNSGSEANEKAFKIVRQIGQLKHGGKKTGILYRARDYHGTTIGTLSACGQFERKVQYGPFAPGFYEFPDCDVYRSKFGDCADLGVKMAKQLEEVILTVGPDELGAVIVEPMTAGGGILVPPAGYYETIREICDKYELLLIIDEVVCGLGRTGKWFGYQHFNVQPDIVTMAKGVASGYAPISCTVTTEKVFQDFVNDPADTDAYFRDISTFGGCTSGPAAALANIEIIERENLLENCTKMGDRLLEGLKGLMAKHPIIGDVRGKGLFAGIEIVKDRATKEPIAEAVANAMVGAAKQAGVLIGKTSRSFREFNNTLTLCPALIATEADIDEIVAGIDKAFTTVEQKFGL
notes: TA-1, taurine-pyruvate transaminase, Bilophila wadsworthia; codon-optimized gene subcloned with NdeI and BamHI into pET22b or pET28b; Purified and stored with PLP as cofactor; also called taurine-pyruvate transaminase; source: E. coli BL21, purified (Ni-NTA, desalting)
- stoichiometry N [4]: 4
